Holding throughout (format): biochemical
In one assay the target is T1, ROCK-I (Homo sapiens, UniProt Q13464).
T1 construct: purchased Millipore (radiometric assay service)
Kind of assay: Millipore radiometric kinase activity assay, ROCK-I (h). The following applies: for ROCK-1 Kinase Activity: peptide inhibitor 300 μM, SD of 2 samples. The procedure: (§1) A commercial radiometric assay service (Millipore, Billerica, Mass.) was used to test the specificity and potency of peptides containing a coupled transduction domain and therapeutic domain, hereinafter “complete peptides”). In these assays, if the kinase is not inhibited by an inhibitor peptide, a positively charged substrate is phosphorylated with a radiolabeled phosphate group from an ATP.
(§2) In a final reaction volume of 25 μL, ROCK-I (b) (5-10 mU) is incubated with 8 mM MOPS pH 7.0, 0.2 mM EDTA, 30 μM […] [SEQ ID NO: 63], 10 mM MgAcetate and [γ-^33P-ATP] (specific activity approx. 500 cpm/pmol, concentration as required). The reaction is initiated by the addition of the MgATP mix. After incubation for 40 minutes at room temperature, the reaction is stopped by the addition of 5 μL of a 3% phosphoric acid solution. 10 μL of the reaction is then spotted onto a P30 filtermat and washed three times for 5 minutes in 75 mM phosphoric acid and once in methanol prior to drying and scintillation counting.
(§3) IC50 values for inhibitor peptides were determined using Millipore's IC50Profiler Express service. The IC50 value was estimated from a 10-point curve of one-half log dilutions. For peptides tested for specificity, the concentration of the peptides that inhibited approximately 95% of MK2 activity was chosen to profile against a battery of kinases related to MK2, cell viability, or human disease from MilliporeKinaseProfiler service. In both assays, compounds were supplied in dimethylsulfoxide (DMSO). Every kinase activity measurement was conducted in duplicate.
(§4) Therapeutic inhibitor peptides were assayed for activity against human kinases related to MK2, cell viability, or human disease. The assays were performed using concentrations of therapeutic inhibitor peptides that yielded 2% to 8% of normal MK2 activity. Error is reported as the standard deviation between 2 samples, and “c” is rat AMPK whereas all other kinases used are human kinases.
(§5) Additional therapeutic inhibitor peptide variants were assayed for activity against several human kinases representative of several families of kinases. These kinases included: MK2; MK3; CaMKI (calcium/calmodulin-dependent protein kinase); PRAK (p38 regulated/activated protein kinase, also known as mitogen-activated protein kinase activated protein kinase 5 (MAPKAPK5)); SAPK2a (p38α); IRAK4 (IL-1 receptor (IL-1R)-associated kinase); MLCK (myosin light chain kinase); PKBβ (protein kinase B); PCKδ (protein kinase C); and ROCK-I (Rho-associated serine/threonine kinase).

The next assay deals with MK2 (Homo sapiens, UniProt P49137). Kind of assay: Millipore radiometric IC50 and kinase activity assay, MK2. Also noted: purchased Millipore (assay service). To be noted: for MK2 Kinase Activity: SD of 2 samples. The procedure:
as §1, §3, §4, §5

The target in a further assay is T2, MK3 (Homo sapiens, UniProt Q16644).
T2 construct: purchased Millipore (assay service)
T2 sequence (Q16644 whole entry): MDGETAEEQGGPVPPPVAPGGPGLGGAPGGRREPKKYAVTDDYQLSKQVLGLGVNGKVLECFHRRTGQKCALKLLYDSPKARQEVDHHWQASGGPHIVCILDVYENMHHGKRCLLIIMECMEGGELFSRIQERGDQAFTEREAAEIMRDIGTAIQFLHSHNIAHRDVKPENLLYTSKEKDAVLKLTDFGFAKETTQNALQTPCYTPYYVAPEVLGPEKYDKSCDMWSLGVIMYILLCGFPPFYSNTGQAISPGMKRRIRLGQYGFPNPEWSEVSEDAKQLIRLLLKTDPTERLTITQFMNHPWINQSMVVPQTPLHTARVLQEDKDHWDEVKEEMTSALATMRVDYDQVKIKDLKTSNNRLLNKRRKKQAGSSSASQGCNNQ
Kind of assay: Millipore radiometric kinase activity assay, MK3. The following applies: SD of 2 samples. The procedure:
as §1, §3, §5

In the next assay the target is T3, MLCK (Homo sapiens, UniProt Q9H1R3).
T3 construct: purchased Millipore (radiometric assay service)
Nature of the assay: Millipore radiometric kinase activity assay, MLCK (h). To be noted: for MLCK Kinase Activity: peptide inhibitor 300 μM, SD of 2 samples. The procedure: as §1
as §2, with “μL, MLCK (h)” for “μL, ROCK-I (b)”, “EDTA, 0.5 mM CaCl2, 16 μg/mL calmodulin, 250” for “EDTA, 30”, “NO: 52],” for “NO: 63],”
as §3, §4, §5

For a further assay, the target named is T4, PRAK (Homo sapiens, UniProt Q8IW41).
T4 construct: purchased Millipore (assay service)
T4 sequence (Q8IW41 1-473): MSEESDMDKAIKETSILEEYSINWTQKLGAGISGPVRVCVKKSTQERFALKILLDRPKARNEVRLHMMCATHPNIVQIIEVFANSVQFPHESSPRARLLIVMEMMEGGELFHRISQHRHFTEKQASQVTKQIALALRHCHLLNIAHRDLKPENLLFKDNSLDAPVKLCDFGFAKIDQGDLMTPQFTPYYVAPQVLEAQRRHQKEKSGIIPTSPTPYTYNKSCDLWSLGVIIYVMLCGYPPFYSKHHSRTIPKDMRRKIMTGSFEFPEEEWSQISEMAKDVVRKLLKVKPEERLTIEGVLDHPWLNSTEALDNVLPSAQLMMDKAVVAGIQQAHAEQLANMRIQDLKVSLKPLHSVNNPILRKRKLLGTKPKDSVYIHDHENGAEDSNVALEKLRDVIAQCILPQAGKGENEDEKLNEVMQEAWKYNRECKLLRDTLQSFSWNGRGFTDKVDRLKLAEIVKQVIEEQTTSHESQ
Nature of the assay: Millipore radiometric kinase activity assay, PRAK (h). The following applies: SD of 2 samples. The procedure: as §1
In a final reaction volume of 25 μL, PRAK (h) (5-10 mU) is incubated with 50 mM Naβ-glycerophosphate pH 7.5, 0.1 mM EGTA, 30 μM […] [SEQ ID NO: 65], 10 mM MgAcetate and [γ-^33P-ATP] (specific activity approx. 500 cpm/pmol, concentration as required). The reaction is initiated by the addition of the MgATP mix. After incubation for 40 minutes at room temperature, the reaction is stopped by the addition of 5 μL of a 3% phosphoric acid solution. 10 μL of the reaction is then spotted onto a P30 filtermat and washed three times for 5 minutes in 50 mM phosphoric acid and once in methanol prior to drying and scintillation counting.
as §3, §5

[1] abbreviates: peptide 100 μM, listed as KAFAKLAARLYRLARQLGVAA
[2] abbreviates: peptide 30 μM, listed as WLRRIKAWLRRI-.

The values that follow come from patent US9327008B2, “Cell-permeant peptide-based inhibitor of kinases” (Purdue Research Foundation, priority 2008, dated 2016).

MK2, sequence (P49137 whole entry): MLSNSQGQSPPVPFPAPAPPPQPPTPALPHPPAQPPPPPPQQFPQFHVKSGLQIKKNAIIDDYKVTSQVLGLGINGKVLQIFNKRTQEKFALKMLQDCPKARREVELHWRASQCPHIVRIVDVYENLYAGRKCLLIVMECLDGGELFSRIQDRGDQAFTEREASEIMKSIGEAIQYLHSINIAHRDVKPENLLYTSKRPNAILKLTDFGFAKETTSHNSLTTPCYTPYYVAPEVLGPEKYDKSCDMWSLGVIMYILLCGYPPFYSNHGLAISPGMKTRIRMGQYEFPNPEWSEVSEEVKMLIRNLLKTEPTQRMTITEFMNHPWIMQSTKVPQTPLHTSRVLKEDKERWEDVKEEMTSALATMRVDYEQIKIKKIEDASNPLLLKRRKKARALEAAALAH
T1 sequence (Q13464 whole entry): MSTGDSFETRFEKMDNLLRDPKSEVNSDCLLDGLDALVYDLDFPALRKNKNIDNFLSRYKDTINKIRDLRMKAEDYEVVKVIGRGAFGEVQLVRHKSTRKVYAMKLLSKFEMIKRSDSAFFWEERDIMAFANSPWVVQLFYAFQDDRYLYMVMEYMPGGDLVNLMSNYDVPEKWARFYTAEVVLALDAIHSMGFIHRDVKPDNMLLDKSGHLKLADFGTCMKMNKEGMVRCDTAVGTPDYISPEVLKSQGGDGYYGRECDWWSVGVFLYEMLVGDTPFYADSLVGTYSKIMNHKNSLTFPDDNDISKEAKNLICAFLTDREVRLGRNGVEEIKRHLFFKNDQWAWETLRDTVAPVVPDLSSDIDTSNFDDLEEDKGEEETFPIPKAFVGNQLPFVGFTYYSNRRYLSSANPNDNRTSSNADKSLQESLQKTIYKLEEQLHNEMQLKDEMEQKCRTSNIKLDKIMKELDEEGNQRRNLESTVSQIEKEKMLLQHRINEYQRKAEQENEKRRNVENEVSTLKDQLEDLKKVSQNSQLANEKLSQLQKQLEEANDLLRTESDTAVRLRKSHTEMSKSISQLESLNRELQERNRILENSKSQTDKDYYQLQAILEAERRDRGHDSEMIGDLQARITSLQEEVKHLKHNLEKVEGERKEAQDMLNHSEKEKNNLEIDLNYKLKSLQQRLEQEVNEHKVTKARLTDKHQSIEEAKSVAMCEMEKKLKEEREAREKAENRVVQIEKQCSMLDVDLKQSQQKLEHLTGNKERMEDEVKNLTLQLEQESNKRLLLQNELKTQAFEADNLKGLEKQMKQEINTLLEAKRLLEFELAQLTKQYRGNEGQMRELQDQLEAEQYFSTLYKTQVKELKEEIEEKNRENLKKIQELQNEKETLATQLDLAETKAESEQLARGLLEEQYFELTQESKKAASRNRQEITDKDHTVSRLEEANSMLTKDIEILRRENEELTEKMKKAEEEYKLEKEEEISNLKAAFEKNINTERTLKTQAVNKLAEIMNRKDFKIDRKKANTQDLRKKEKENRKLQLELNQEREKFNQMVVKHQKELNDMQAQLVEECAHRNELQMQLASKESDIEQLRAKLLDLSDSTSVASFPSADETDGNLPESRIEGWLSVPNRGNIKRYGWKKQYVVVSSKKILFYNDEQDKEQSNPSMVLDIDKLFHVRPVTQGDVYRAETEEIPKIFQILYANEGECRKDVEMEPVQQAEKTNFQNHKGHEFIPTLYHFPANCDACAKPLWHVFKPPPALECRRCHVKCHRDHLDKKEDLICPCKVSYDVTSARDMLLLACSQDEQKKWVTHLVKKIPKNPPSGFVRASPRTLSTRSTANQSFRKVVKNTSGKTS

Take FAKLAARLYRKALARQLGVAA: the “ROCK-1 Kinase Activity (%) (+SD %)” value in the assay with ROCK-I (peptide 100 μM) was 25(2) %. Further, in the assay with MK2 (peptide inhibitor 100 μM), the “MK2 Kinase Activity” value is 5(2) %. For the same sequence, the “MK3 Kinase Activity” value with MK3 (peptide inhibitor 100 μM) is 10(1) %. Moreover, the “MLCK Kinase Activity (%) (+SD %)” value with MLCK (peptide 100 μM) was 1(1) %. Further, the “PRAK Kinase Activity” value with PRAK (peptide inhibitor 100 μM) was 131(4) %.
Turning to KAFAKLAARLYRKALARQLGVAA, the “ROCK-1 Kinase Activity (%) (+SD %)” value with ROCK-I (peptide 100 μM) is on record as 29 (0) %; with ROCK-I (setting [1]), 29(0) %. Further, the “MK2 Kinase Activity” value with MK2 (peptide inhibitor 100 μM) was 8(1) %. Moreover, the “MK3 Kinase Activity” value in the assay with MK3 (peptide inhibitor 100 μM) is 17(1) %. The “MLCK Kinase Activity (%) (+SD %)” value with MLCK (peptide 100 μM) is recorded as 2 (0) %; in the assay with MLCK (setting [1]), 2(0) %. In addition, the “PRAK Kinase Activity” value in the assay with PRAK (peptide inhibitor 100 μM) is on record as 148(4) %.
Consider WLRRIKAWLRRIKALNRQLGVAA, for which the “ROCK-1 Kinase Activity (%) (+SD %)” value is 0(1) % with ROCK-I (peptide 30 μM), 0 (1) % with ROCK-I (setting [2]) and 25 (2) % in the assay with ROCK-I (peptide 100 μM). Further, the “MK2 Kinase Activity” value with MK2 (peptide inhibitor 30 μM) is 2(1) %. Also, the “fold lower IC50 than the therapeutic inhibitor peptide incorporating PTD YARAAARQARA (FIG. 2)” value in the assay with MK2 (same therapeutic domain KALNRQLGVAA) is “greater than 30 fold”. In addition, in the assay with MK3 (peptide inhibitor 30 μM), the “MK3 Kinase Activity” value was 16(2) %. For the same sequence, the “MLCK Kinase Activity (%) (+SD %)” value is given as 4(1) % with MLCK (peptide 30 μM), 4 (1) % with MLCK (setting [2]) and 1 (1) % in the assay with MLCK (peptide 100 μM). In addition, in the assay with PRAK (peptide inhibitor 30 μM), the “PRAK Kinase Activity” value was 67(9) %.
In the case of YARAAARQARAKALARQLGVAA, the “ROCK-1 Kinase Activity” value with ROCK-I is 27(4) %. Further, the “MK2 Kinase Activity” value with MK2 (peptide inhibitor 300 μM) is on record as −7(0) %. The “MK3 Kinase Activity” value in the assay with MK3 (peptide inhibitor 300 μM) was 5(1) %. Further, in the assay with MLCK, the “MLCK Kinase Activity” value is 9(0) %. Further, the “PRAK Kinase Activity” value in the assay with PRAK (peptide inhibitor 300 μM) was 86(2) %.
In the same order, the values of YARAAARQARAKALNRQLGVAA are 95(7) %, 10(3) %, 19(3) %, 66(9) % and 81(3) %.
